The target in test [1] is glutamine synthetase CsGSIb from Camellia sinensis, wild type (Camellia sinensis). The experiment in a line: AUC.
Test [2] shares this target. The experiment in a line: negative-stain electron microscopy.
For test [3] the target is unchanged. As to the kind of experiment: cryo-EM structure.
For test [4] the target is unchanged. As to the kind of experiment: cryo-EM structure. The source holds these as a separate data set.
Test [5] has the same target. The experiment in a line: SEC-MALS. On the technique in general: Size exclusion chromatography separates by hydrodynamic size, large species first.
The target of test [6] is CsGSIb EVK138DIQ mutant (Camellia sinensis). As to the kind of experiment: AUC.
The target is the same in test [7]. As to the kind of experiment: SEC-MALS.
Test [8] concerns the target glutamine synthetase GmGSβ2 from Glycine max (Glycine max). The experiment in a line: negative-stain electron microscopy.
For test [9] the target is unchanged. As to the kind of experiment: cryo-EM structure.
For test [10] the target is unchanged. As to the kind of experiment: SEC-MALS.
In test [11] the target is CsGSIb I143L mutant (Camellia sinensis). As to the kind of experiment: AUC.
Test [12] shares this target. As to the kind of experiment: SEC-MALS.

The record followed here is paper doi:10.1101/2021.08.20.457084.

“And” between values parts separate entries of the source, which are not always exact repeats. Identical values can stand only once. Some results are limits rather than exact numbers.

Usually Kd stands for a measure of binding affinity in units of concentration. A low value points to higher affinity. As a reminder, the stoichiometry N is the number of molecules, sites or subunits per partner or assembly. Turning to “glutamine synthetase CsGSIb from Camellia sinensis, wild type (enzyme)”, the Kd in test [1] amounted to 270 nM. The stoichiometry N in test [1] was 10 and 5; in test [2] it was 5 and 10; in test [3] it was 5; in [4], 10; in test [5] it was 5 and 10. In addition, the percent of the protein in the decameric state in test [5] was determined as 18%. The same substance showed a percent of the protein in the pentameric state in test [5] of 82%.

In test [6], CsGSIb EVK138DIQ mutant (enzyme) yielded a Kd of 40 nM. Besides, in [7], the percent of the protein in the decameric state was 72% and the stoichiometry N came to 10.

As to “glutamine synthetase GmGSβ2 from Glycine max (enzyme)”, the stoichiometry N in [8], in [9] and in test [10] was 10 in each case.

In turn, CsGSIb I143L mutant (enzyme) registered a Kd in test [11] of 10 nM. In [12], this substance registered a percent of the protein in the decameric state of over 95% and a stoichiometry N of 10.
